Experimental data from patent US12194200B2, “Silk fibroin-based microneedles and methods of making the same” (Trustees of Tufts College, priority 2010, dated 2025).

Experiment: HRP enzymatic activity detected with chromogenic substrate
Type: biochemical
Conditions: after silk processing and collagenase digestion
Experimental: The release kinetics of HRP from silk fibroin microneedles into the collagen hydrogels (N=3) were determined spectroscopically. The collagen hydrogel was selectively digested with collagenase. Subsequently, a colorimetric HRP enzyme activity assay was carried out as described later in the Exemplary Materials and Methods (FIG. 9C). […] Compared to the 2 hour and 8 hour water annealed devices, the untreated silk microneedles released in the same time period about 2.7±0.18 and about 5.6±0.99 times as much HRP, respectively. The beta sheet content in the silk fiborin microneedle samples was determined, e.g., by infrared spectroscopy, with results of ˜14%, ˜18% and ˜21% for the untreated, 2 hr-annealed and 8 hr-annealed silk fibroin microneedle samples, respectively. […]
HRP release model: The silk fibroin microneedles were loaded with 1 mg/ml of HRP (Sigma Aldrich). […] The collagen or gelatin slab measured approximately 2.5 mm in height. […] The needles were pierced through Parafilm (Parafilm M, Pechiney Plastic Packaging) membranes (polymer membrane in FIG. 8A) and subsequently applied to the hydrogel slabs to quantify the HRP release. […] To quantify the total amount of HRP release from the silk fibroin microneedles, a plurality of stacks, each of which included an array of silk fibroin microneedles, a polymer membrane and a collagen hydrogel, were prepared and evaluated at multiple time points. […]

Substance: horseradish peroxidase [HRP]
- enzymatic activity of HRP: retained activity
